Test [1] concerns the target human α-Synuclein pre-formed fibrils (human) (UniProt P37840). Put plainly: cell-based or functional assay.
Test [2] concerns the target Lewy body α-Synuclein (human) (UniProt P37840). Put plainly: IHC, human amygdala; OD of Lewy bodies / OD of tissue.

Turning to IgG (antibody), in test [1], the % Inhibition (primary neuron assay) turned out to be 0%.

Consider Syn211 (antibody), for which the % Inhibition (primary neuron assay) in test [1] was found to be 94.7%.

In test [2], Syn303 (antibody) returned an LB Discrimination Index of 2.1.

These data come from patent publication US20230025707A1.
